In publication doi:10.1101/2021.01.14.426755 (bioRxiv, 2021):

Biological target: T1, Tfb2 (yeast (endogenous, purified from yeast), UniProt Q02939 1-513)
T1 sequence: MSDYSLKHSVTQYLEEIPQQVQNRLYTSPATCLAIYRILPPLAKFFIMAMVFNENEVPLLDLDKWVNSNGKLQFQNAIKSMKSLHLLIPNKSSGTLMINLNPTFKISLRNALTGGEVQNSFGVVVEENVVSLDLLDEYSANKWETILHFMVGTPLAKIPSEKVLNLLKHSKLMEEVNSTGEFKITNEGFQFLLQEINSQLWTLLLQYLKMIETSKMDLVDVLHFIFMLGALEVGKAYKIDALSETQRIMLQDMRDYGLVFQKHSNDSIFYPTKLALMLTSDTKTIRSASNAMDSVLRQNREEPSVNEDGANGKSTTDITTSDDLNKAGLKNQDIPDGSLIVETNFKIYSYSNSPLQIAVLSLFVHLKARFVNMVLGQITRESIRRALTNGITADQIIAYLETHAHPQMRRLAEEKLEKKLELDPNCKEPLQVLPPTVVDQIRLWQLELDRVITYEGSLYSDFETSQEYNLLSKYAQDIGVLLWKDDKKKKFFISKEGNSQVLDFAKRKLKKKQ
Assay: cryo-EM structure

B1: Tfb5 (natural protein)
chain: MARARKGALVQCDPSIKALILQIDAKMSDIVLEELDDTHLLVNPSKVEFVKHELNRLLSKNIYNPMDEEENQ
binding result: binds
